Measured values from patent US20220112276A1 (Janssen / Centocor, published 2022).
Numbering of substitutions follows the chain as printed. Values belong to the binder of their own block, whether it stands above or below them.

Experiments:
[1] = biological target: T1, human pIgR extracellular domain (ECD) (human, UniProt P01833 19-638); test: SPR
T1 construct: Bought from R&D Systems (Cat 2717-PG-050); also called hpIgR ECD

[2] = biological target: T2, mouse pIgR extracellular domain (ECD) (mouse, UniProt O70570 19-645); test: SPR, VHH captured by anti-Fc, ECD analyte
T2 construct: Bought from R&D Systems (Cat 2800-PG-050); also called mpIgR ECD
T2 sequence: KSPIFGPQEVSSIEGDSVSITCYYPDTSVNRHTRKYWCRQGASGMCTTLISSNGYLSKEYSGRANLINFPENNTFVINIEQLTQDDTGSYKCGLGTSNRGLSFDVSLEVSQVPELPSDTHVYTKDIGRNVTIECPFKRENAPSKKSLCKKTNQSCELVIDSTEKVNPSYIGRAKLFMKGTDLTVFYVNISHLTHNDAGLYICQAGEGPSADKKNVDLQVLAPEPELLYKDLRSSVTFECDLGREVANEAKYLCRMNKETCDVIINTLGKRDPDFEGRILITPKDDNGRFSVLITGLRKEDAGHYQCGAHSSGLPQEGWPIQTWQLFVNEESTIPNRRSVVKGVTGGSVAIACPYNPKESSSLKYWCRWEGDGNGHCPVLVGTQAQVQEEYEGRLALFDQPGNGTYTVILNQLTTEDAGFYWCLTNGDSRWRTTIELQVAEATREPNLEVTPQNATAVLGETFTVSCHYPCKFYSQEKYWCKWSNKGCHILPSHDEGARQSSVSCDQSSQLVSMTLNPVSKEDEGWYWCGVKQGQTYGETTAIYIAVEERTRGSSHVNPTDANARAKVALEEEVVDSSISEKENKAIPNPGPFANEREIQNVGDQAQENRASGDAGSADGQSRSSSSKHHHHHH
Method in brief: (§1)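 Single-cycle kinetics: ECD analyte from 30 nM, 3-fold series, low to high, with 30 min off-rate monitoring, over VHH captured at 0.5 ug/ml (~200-300 RU). HBSP plus 100 ug/ml BSA at 30 μL/min. Reference cell and buffer blank subtracted; global 1:1 Langmuir fit gave kon, koff, KD.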

[3] = biological target: T3, cynomolgus monkey pIgR extracellular domain (cynomolgus monkey, UniProt A0A2K5WMU9 19-638); test: SPR, VHH captured by anti-Fc, ECD analyte
T3 construct: extracellular domain
T3 sequence (A0A2K5WMU9 entry or part of it): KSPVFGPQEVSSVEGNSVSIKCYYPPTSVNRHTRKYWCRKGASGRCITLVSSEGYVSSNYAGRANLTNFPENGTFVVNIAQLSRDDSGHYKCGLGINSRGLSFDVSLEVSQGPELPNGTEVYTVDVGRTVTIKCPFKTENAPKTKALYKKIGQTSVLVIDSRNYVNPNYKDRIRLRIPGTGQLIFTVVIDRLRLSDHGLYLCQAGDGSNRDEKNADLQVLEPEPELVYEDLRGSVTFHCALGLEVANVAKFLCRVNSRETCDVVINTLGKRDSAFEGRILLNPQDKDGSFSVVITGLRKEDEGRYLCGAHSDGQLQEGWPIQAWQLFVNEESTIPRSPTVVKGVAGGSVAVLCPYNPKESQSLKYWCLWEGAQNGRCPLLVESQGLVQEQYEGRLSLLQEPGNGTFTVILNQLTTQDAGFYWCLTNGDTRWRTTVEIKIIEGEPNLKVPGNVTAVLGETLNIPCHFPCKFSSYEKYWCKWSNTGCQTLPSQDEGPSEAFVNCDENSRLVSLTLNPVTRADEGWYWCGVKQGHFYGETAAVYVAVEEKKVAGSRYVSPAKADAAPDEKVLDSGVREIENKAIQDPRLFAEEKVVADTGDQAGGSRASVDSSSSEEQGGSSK
Method in brief: as §1

[4] = biological target: T4, rat pIgR extracellular domain (rat, UniProt P15083 19-643); test: SPR, VHH captured by anti-Fc, ECD analyte
T4 construct: extracellular domain
T4 sequence (looked up): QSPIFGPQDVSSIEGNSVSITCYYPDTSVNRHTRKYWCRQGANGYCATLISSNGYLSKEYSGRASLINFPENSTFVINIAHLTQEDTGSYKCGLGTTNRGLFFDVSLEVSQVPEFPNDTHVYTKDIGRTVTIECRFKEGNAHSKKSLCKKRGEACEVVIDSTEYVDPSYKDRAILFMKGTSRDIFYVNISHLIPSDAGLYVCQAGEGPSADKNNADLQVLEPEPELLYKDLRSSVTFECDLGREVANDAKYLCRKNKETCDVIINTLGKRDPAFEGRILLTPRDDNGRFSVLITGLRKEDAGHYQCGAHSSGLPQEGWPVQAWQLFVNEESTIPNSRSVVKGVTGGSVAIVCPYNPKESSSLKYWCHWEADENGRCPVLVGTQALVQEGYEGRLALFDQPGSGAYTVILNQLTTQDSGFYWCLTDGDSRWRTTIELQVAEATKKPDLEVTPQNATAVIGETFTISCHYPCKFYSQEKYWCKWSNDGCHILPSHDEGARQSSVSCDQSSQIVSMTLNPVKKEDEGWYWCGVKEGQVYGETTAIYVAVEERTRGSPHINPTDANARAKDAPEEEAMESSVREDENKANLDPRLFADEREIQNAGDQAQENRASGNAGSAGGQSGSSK
Method in brief: as §1

T1 sequence (P01833 other isoform, or with tags, fused parts or gaps): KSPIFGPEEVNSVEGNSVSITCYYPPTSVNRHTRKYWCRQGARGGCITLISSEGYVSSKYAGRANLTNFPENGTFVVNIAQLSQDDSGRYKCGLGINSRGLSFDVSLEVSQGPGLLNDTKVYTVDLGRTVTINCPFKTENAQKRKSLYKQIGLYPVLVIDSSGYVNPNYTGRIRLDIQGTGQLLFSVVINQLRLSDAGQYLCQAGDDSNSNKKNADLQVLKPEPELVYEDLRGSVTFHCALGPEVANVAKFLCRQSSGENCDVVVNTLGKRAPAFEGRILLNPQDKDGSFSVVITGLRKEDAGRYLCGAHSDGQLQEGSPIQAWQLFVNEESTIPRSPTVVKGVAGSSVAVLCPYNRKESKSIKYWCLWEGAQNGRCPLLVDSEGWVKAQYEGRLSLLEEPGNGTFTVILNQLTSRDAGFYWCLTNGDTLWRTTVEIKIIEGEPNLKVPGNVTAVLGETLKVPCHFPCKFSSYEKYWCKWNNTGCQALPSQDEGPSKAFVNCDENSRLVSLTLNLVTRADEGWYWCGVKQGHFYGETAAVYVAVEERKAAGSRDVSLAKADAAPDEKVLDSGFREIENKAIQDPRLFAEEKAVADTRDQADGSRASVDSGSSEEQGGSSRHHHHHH

binding result [1]: no binding (tested: 30 nM) | Kd [2]: 3.98 nM | Kd [3]: 2.72 nM
B1: 01F05R2LS VHH Mono-Fc (Fc fusion)
chain: QVQLVESGGGLVQAGGSLRLSCAASGSIFAINGMGWYRQAPGKQRELVAVITRGGSTNYADSVKGRFTISRDNAKNTVSLQMNSLKPEDTAVYYCAATGVLAGWAAGDGMDYWGKGTLVTVSSSPAPELLGGPSVFLFPPKPKDTLMISRTPEVTCVVVDVSHEDPEVKFNWYVDGVEVHNAKTKPREEQYNSTYRVVSVLTVLHQDWLNGKEYKCKVSNKALPAPIEKTISKAKGQPREPQVYTKPPSREEMTKNQVSLSCLVKGFYPSDIAVEWESNGQPENNYKTTVPVLDSDGSFRLASYLTVDKSRWQQGNVFSCSVMHEALHNHYTQKSLSLSPGK

binding result [1]: no binding (tested: 30 nM) | Kd [2]: 3.29 nM
B2: 01A04R3LS VHH Mono-Fc (Fc fusion)
chain: QVQLVESGGGSVQPGGSLRLSCAASGIDVSISTIMWYRQPPGRQRELVADVIPSGRSTTYTESVKGRFTVTRDNAKNTVYLQMSGLKPEDTAVYYCNAFVRRENYWGQGTQVTVSSSPAPELLGGPSVFLFPPKPKDTLMISRTPEVTCVVVDVSHEDPEVKFNWYVDGVEVHNAKTKPREEQYNSTYRVVSVLTVLHQDWLNGKEYKCKVSNKALPAPIEKTISKAKGQPREPQVYTKPPSREEMTKNQVSLSCLVKGFYPSDIAVEWESNGQPENNYKTTVPVLDSDGSFRLASYLTVDKSRWQQGNVFSCSVMHEALHNHYTQKSLSLSPGK

binding result [1]: no binding (tested: 30 nM) | Kd [2]: 46.6 nM | Kd [4]: 25.4 nM
B3: 02H04R3 VHH Mono-Fc (Fc fusion)
chain: EVQLVESGGGLVQPGGRLRLSCAASGSIFSIRDMGWYRQAPGKQRELVAIFARGGSTHYADSVKGRFTISRDNAKNTVYLQMNSLEPEDTAAYYCNAEVATMIQPGFRDYWGQGTQVTVSSSPAPELLGGPSVFLFPPKPKDTLMISRTPEVTCVVVDVSHEDPEVKFNWYVDGVEVHNAKTKPREEQYNSTYRVVSVLTVLHQDWLNGKEYKCKVSNKALPAPIEKTISKAKGQPREPQVYTKPPSREEMTKNQVSLSCLVKGFYPSDIAVEWESNGQPENNYKTTVPVLDSDGSFRLASYLTVDKSRWQQGNVFSCSVMHEALHNHYTQKSLSLSPGK

binding result [1]: no binding (tested: 30 nM) | Kd [2]: 1.34 nM | Kd [4]: 0.448 nM
B4: 02D06R3 VHH Mono-Fc (Fc fusion)
chain: B3 chain with E1Q, G35A, L47W, F51A, S84T

binding result [1]: no binding (tested: 30 nM) | Kd [2]: 2.76 nM | Kd [4]: 1.32 nM
B5: 02B03R3 VHH Mono-Fc (Fc fusion)
chain: B3 chain with P14S, R17Q, F29A, G35A, S56T, I103F, Q113R, Q116L

binding result [1]: no binding (tested: 30 nM) | Kd [2]: 6.06 nM | Kd [4]: 2.91 nM
B6: 01A03R3L VHH Mono-Fc (Fc fusion)
chain: B3 chain with R17Q, F29A, I31V, G35A, E46G, S56T, I103F, Q113R, Q116L

binding result [1]: no binding (tested: 30 nM) | Kd [2]: 33.1 nM | Kd [4]: 16 nM
B7: 01C03R3L VHH Mono-Fc (Fc fusion)
chain: B3 chain with E1Q, Q116L

binding result [1]: no binding (tested: 30 nM) | Kd [2]: 19.8 nM
B8: 01G05R2LS VHH Mono-Fc (Fc fusion)
chain: QVQLVESGGGLVQAGDSLALSCAGSGDTFSNYAMGWFRQAPGKEREFVADISWYSANIGYADSVKGRFTISRDNAKNMVTLRMNSLKPEDTAVYYCAADRNHWPVKGDYWGQGTQVTVSSSPAPELLGGPSVFLFPPKPKDTLMISRTPEVTCVVVDVSHEDPEVKFNWYVDGVEVHNAKTKPREEQYNSTYRVVSVLTVLHQDWLNGKEYKCKVSNKALPAPIEKTISKAKGQPREPQVYTKPPSREEMTKNQVSLSCLVKGFYPSDIAVEWESNGQPENNYKTTVPVLDSDGSFRLASYLTVDKSRWQQGNVFSCSVMHEALHNHYTQKSLSLSPGK

binding result [1]: no binding (tested: 30 nM) | Kd [2]: 0.71 nM | Kd [4]: 1.74 nM
B9: 02H11R3 VHH Mono-Fc (Fc fusion)
chain: EVQLVESGGGSVQAGGSLRLSCAASGRTFSNYAMGWFRQAPGKEREFVAGISRSGGSTYSADSVKGRFTISRDNAKNTVYLQMNSLKPEDTAVYYCAADGLDYALGFRGDYWGQGTQVTVSSSPAPELLGGPSVFLFPPKPKDTLMISRTPEVTCVVVDVSHEDPEVKFNWYVDGVEVHNAKTKPREEQYNSTYRVVSVLTVLHQDWLNGKEYKCKVSNKALPAPIEKTISKAKGQPREPQVYTKPPSREEMTKNQVSLSCLVKGFYPSDIAVEWESNGQPENNYKTTVPVLDSDGSFRLASYLTVDKSRWQQGNVFSCSVMHEALHNHYTQKSLSLSPGK

binding result [1]: no binding (tested: 30 nM) | Kd [2]: 0.796 nM | Kd [4]: 1.61 nM
B10: 01G03R3L VHH Mono-Fc (Fc fusion)
chain: B9 chain with E1Q, Q117L

binding result [1]: no binding (tested: 30 nM) | Kd [2]: 20.6 nM | Kd [3]: 86.1 nM | Kd [4]: 22.5 nM
B11: 01E11R2 VHH Mono-Fc (Fc fusion)
chain: QVQLVESGGGLVQTGGSLRLSCAASGLTFSSYTMGWFRQAPGKEREFVAAISWGGASTWYADSVKGRFTISRDNAKTMVYLQMNGLKPEDTAVYYCAKGRNNGYATAVRAYDYWGQGTLVTVSSSPAPELLGGPSVFLFPPKPKDTLMISRTPEVTCVVVDVSHEDPEVKFNWYVDGVEVHNAKTKPREEQYNSTYRVVSVLTVLHQDWLNGKEYKCKVSNKALPAPIEKTISKAKGQPREPQVYTKPPSREEMTKNQVSLSCLVKGFYPSDIAVEWESNGQPENNYKTTVPVLDSDGSFRLASYLTVDKSRWQQGNVFSCSVMHEALHNHYTQKSLSLSPGK
